Values belong to the binder of their own block, whether it stands above or below them.
Key:
[1] = target: 重组人IL-1β蛋白 (recombinant human IL-1β protein, as used in the Gator BLI experiments) (human) (UniProt P01584); experiment: BLI (Gator Prime), IL-1β on the probe saturated with 1F3, 10A10 as second antibody
[2] = target: T1, 重组人IL-1β蛋白 (recombinant human IL-1β protein, as used in the Gator BLI experiments) (human, UniProt P01584 117-269); experiment: BLI (Gator Prime), affinity test
T1 construct: also called 人白介素-1β; 目的蛋白

[3] = target: T2, 重组人白介素-1β，R&D货号:840170 (recombinant human IL-1β standard of the sandwich ELISA) (human, UniProt P01584 117-269); experiment: double-antibody sandwich ELISA, 10A10 capture and 1F3-biotin detection, human IL-1β at 100pg/mL
T2 construct: also called 标准样品; 人白介素-1β蛋白

- shift值 [1]: 0.214
B1: 兔单克隆抗体10A10 (rabbit monoclonal antibody 10A10 against human IL-1β) (antibody, V domains shown)
VH: QSVEESGGRLVTPGTPLTLTCTVSGFSLSTYAMSWVRQAPGKGLEWIGIISGSGNTAYASWAKGRFTISKTSTTVDLKMTSPTTEDTATYFCARSYEDYANIWGPGTLVTVSS
VL: AQVLTQTPSSVSAAVGGTVTINCQASQSLYNNNELSWYQQKPGQPPKLLIYKASTLASGVSSRFKGSGSGTQFTLTISGVQCDDAATYYCQGDYSCRIADCYAFGGGTEVVVKG

- binding result [2]: binds
- binding result [3]: binds
B2: 兔单克隆抗体1F3 (rabbit monoclonal antibody 1F3 against human IL-1β) (antibody, V domains shown)
VH: QSVEESGGRLVTPGTPLTLTCTVSGFSLSRNAISWVRQPPGKGLEWIGFISSYDTTYYATWAKGRFTISKTSTTVDLKIASPTTEDTATYFCARETGADNNSNFDIWGPGTLVTVSS
VL: AQVLTQTPSPVSAAVGGTVTINCQSSQSVSHNNWLAWYQQKPGQPPKLLIYDASKLASGVSSRFRGSGSGTQFTLTISGVQCDDAATYYCQGETFCSSADCNAFGGGTELVVKG
notes: In the BLI experiments it was unlabelled; also called 兔抗Human IL-1β单克隆抗体A; 1F3-biotin
